Data on one molecule can be found in patent US8722043B2, “Induction of p53 expression by neutralization of neuropilin-2 for the treatment of cancers” (Diaclone, priority 2008, dated 2014).

In series [1] the test system is Colo320siRNA-ctrl cells. Kind of series: Annexin V-APC apoptosis test with or without PFTα pretreatment. The format is cell-based, human. To be noted: 20 μg/ml, 5 h. The method, then:
In order to correlate the induction of apoptosis with p53 expression, the Colo320siRNA-ctrl cells were pretreated for 18 h with a chemical inhibitor of p53, pifithrin-α, at a dose of 27 μM (PFTα, Sigma). After pretreatment, the cells are washed twice with 3 ml of PBS and placed in a 24-well plate, at a rate of 100 000 cells/well in 1 ml of RPMI-10% FCS. Non-pretreated cells are placed under the same conditions. The cells are incubated for 5 h with a control murine isotype antibody (BZ1) or ITAC-B1 at 20 μg/ml and the apoptosis is measured as described above.
FIG. 14 represents the results of the apoptosis-induction experiments carried out with the Colo320siRNA-ctrl cells pretreated or not pretreated with PFTα. The percentage of cells labelled with Annexin V-APC is indicated on the y-axis, the cell culture conditions are indicated on the x-axis (control consisting of medium, control consisting of medium supplemented with a control isotype antibody -BZ1-, test consisting of medium supplemented with the ITAC-B1 antibody). The results of the tests carried out with cells pretreated with PFTα are represented in light grey, those of the tests carried out with non-pretreated cells are represented in dark grey.

For series [2], the system named is HT29-NRP-2 cells. The series can be described thus: Annexin V-APC apoptosis test. The series is classed as cell-based, human. The method, then:
In order to determine the ability of the ITAC-B1 antibody to induce apoptosis of tumour cells expressing NRP-2, an in vitro Annexin V-APC apoptosis test was carried out (BD Pharmingen, San Diego, Calif.). This test is based on the externalization of phosphatidylserin by apoptotic cells and on the binding of Annexin V-APC to this molecule.
1 ml of DMEM medium containing 10% of inactivated FCS and 100 000 HT29-NRP-2 cells or 100 000 HT29ctrl cells were seeded, per well, into a 24-well Nunc plate. […] In parallel, “cells alone” controls were carried out, as were negative controls (anti-human mouse IgG1 antibody (BZ1) at the same concentrations as the ITAC-B1 antibody).
[…] When the cells began to detach, 500 μl of DMEM medium-10% FCS were added per well. The cells were then centrifuged, washed twice in PBS, and then taken up in 300 μl of 1× binding buffer (provided in the kit), and then 5 μl of Annexin V-APC were subsequently added to 100 μl of this solution.
The panels of FIG. 13 are point-cloud representations of the flow cytometry analysis. For each of the panels, the fluorescence intensity (corresponding to the labelling of the cells with Annexin V-APC) is represented on the x-axis. The y-axis indicates the granulosity of the cells (Side Scatter or SSC). […] The percentage of cells labelled with Annexin V-APC (corresponding to the percentage of cells having entered into apoptosis) is indicated at the bottom-right of each panel.
The apoptosis induced was then measured by labelling with Annexin V-APC as described above.
The panels of FIG. 15 are point-cloud representations of the flow cytometry analysis. For each of the panels, the fluorescence intensity (corresponding to the labelling of the cells with Annexin V-APC) is represented on the x-axis. The y-axis indicates the granulosity (side scatter) of the cells. The conditions of treatment with the antibodies and the Avastin® are indicated to the left of the panels. The percentage of cells labelled with the Annexin V-APC, corresponding to the percentage of cells having entered into apoptosis, is indicated at the top-right of each panel.

Series [3] deals with T1, human neuropilin-2 at the membrane surface (HT29-NRP-2, P815-NRP-2 cells) (Homo sapiens, UniProt O60462).
T1 construct: expressed in transfected cells; host or cells: HT29 (human colorectal cancer) and P815 (murine mastocytoma) cells, G418-selected
Kind of series: Flow cytometry membrane labelling of cells expressing or not expressing NRP-2. The format is binding. To be noted: 5 μg/ml antibody, 15 minutes at 4° C.; HT29, HT29-NRP-2, P815, P815-NRP-2 cells. The method, then: The ITAC-B1 clone was deposited, according to the Treaty of Budapest, with the CNCM (Collection Nationale des Microorganismes [French National Microorganism Collection], Institut Pasteur, 25 rue du Docteur Roux, 75724 Paris Cedex 15, France) on 30 Jul. 2008 under the deposit number CNCM 1-4054. In order to characterize the ITAC-B1 and ITAC-B2 monoclonal antibodies, membrane labelling was carried out by flow cytometry by bringing 200 000 HT29, HT29-NRP-2, P815 or P815-NRP-2 cells into contact with 5 μg/ml of ITAC-B1 or of ITAC-B2, for 15 minutes at 4° C. A goat anti-mouse secondary antibody coupled to FITC was then incubated for 15 minutes in the dark, at 4° C., before reading by flow cytometry. The results of the flow cytometry analysis obtained for ITAC-B1 are represented in FIG. 2.
For each of the panels of FIG. 2, the number of events (number of cells) is indicated on a y-axis, the fluorescence intensity (corresponding to the labelling of the cells with the ITAC-B1 antibody) is represented on the x-axis. Panels A and C (P815+ITAC-B1 and HT29ctrl+ITAC-B1) of FIG. 2 represent the results obtained by flow cytometry with the control cells, while panels B and D (P815-NRP-2+ITAC-B1 and HT29-NRP-2+ITAC-B1) represent the results obtained with cells expressing NRP-2 at their membrane surface. […]
(In flow cytometry, cells or beads pass a laser one at a time.)

T1 sequence (O60462 21-931): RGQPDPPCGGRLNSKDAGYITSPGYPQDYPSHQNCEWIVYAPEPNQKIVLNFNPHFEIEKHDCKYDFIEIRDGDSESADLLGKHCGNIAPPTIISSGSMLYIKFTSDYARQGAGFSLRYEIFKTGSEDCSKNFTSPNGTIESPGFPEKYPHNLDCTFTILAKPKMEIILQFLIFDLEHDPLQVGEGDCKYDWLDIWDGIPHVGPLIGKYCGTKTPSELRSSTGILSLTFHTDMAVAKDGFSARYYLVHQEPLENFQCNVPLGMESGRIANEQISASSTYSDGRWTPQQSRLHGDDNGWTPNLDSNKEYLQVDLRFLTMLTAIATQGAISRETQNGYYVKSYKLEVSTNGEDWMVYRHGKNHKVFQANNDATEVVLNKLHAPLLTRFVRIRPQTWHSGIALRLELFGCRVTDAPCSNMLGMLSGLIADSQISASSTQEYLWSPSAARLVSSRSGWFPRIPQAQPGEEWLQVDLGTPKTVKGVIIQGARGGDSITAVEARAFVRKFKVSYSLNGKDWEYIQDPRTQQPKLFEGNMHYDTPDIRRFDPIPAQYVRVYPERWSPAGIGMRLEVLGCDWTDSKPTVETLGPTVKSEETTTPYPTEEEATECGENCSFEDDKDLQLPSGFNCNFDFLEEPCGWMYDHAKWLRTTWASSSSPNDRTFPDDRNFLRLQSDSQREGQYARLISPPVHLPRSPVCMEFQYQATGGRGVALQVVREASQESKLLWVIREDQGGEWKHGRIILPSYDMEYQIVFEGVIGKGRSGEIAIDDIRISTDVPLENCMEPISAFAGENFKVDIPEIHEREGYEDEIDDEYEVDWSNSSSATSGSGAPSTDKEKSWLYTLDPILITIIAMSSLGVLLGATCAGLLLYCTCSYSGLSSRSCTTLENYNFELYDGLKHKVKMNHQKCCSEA

B1: ITAC-B1: anti-human neuropilin-2 murine monoclonal antibody, VH SEQ ID No. 2, VL SEQ ID No. 4, produced by hybridoma CNCM 1-4054 (antibody, listed as Mus musculus, V domains shown)
VH: EVKLQESGAELVKPGASVKLSCTVSGFNIKDTYIHWVIQRPEQGLEWLGRIDPANGNTKYDPKFQGKATITADTSSNTAYLQLSSLTSEDTAVYYCARWAVVGDYWGQGTTLTVSS
VL: YCDHPLYKFLHVSAGDRVTITCKASQSVSDDVAWYQQKPGQSPKLLIYSASNRYTGVPDRFTGSGYGTDFTFTISTVQPEDLAVYFCQQDYSSPTFGSGTKLELK
For the molecule B1, the “percentage of cells labelled with Annexin V-APC” value in series [1] (cells pretreated 18 h with PFTα 27 μM) is “approximately 28%”; in series [1] (non-pretreated cells), 41%. For the same molecule, the “apoptosis induced (Annexin V-APC labelling) as a function of concentration” value in series [2] (0.5, 1 and 5 μg/ml, 16 hours) is recorded as “dose-dependent”. Moreover, in series [2] (16 hours incubation, 0.5, 1 and 5 μg/ml tested), the “dose at which apoptosis of cells expressing NRP-2 is induced” value is given as “greater than or equal to 1 μg/ml”. Moreover, the “combined action with anticancer molecules (5-FU, irinotecan) on apoptosis” value in series [2] (FIG. 13) was “synergy of action”. Further, the “percentage of cells labelled with Annexin V-APC (apoptosis)” value in series [2] (ITAC-B1 2.5 μg/ml jointly with 5-FU 10 μg/ml (FIG. 13)) is on record as about 78.5%; in series [2] (ITAC-B1 2.5 μg/ml with irinotecan 10 μg/ml (FIG. 13)), about 51%; in series [2] (ITAC-B1 5 μg/ml jointly with 5-FU 10 μg/ml (FIG. 13)), about 80%; in series [2] (ITAC-B1 5 μg/ml with irinotecan 10 μg/ml (FIG. 13)), about 58%; in series [2] (antibody 20 μg/ml, 6 hours, cells cultured with Avastin (bevacizumab) 50 μg/ml (FIG. 15)), “approximately 58%”; in series [2] (antibody 20 μg/ml, 6 hours, without Avastin (FIG. 15)) it was about 51%. Besides, in series [2] (selection criterion of the hybridoma clones), the “ability to induce apoptosis of tumour cells expressing neuropilin-2 (selection of clones)” value is reported as “ability to induce apoptosis of tumour cells expressing neuropilin-2”. For the same molecule, in series [3], the “labelling of cells expressing NRP-2 versus cells not expressing NRP-2” value is recorded as “specifically recognize the neuropilin-2 present at the membrane surface”.
